Reference: PMC6697062

Assays:
[1] = target: C6B/CV2 one-armed SEEDbody; assay: BLI; C6B oaSEEDbody on anti-Fab tips; association with 100 nM CEACAM6 at pH 7.4, dissociation at pH 6.0
[2] = target: C6B/IGKV3-15*01 one-armed SEEDbody; assay: as above
[3] = target: C6B/CV2 one-armed SEEDbody; assay: BLI; C6B oaSEEDbody on anti-Fab tips; association with 100 nM CEACAM6 at pH 7.4, dissociation at pH 7.4; 1:1 model
[4] = target: C6B/IGKV3-15*01 one-armed SEEDbody; assay: as above
[5] = target: C6B/CV2 one-armed SEEDbody; assay: BLI; C6B oaSEEDbody on anti-Fab tips; association with 100 nM CEACAM6 at pH 7.4, dissociation at pH 5.0
[6] = target: C6B/IGKV3-15*01 one-armed SEEDbody; assay: as above
[7] = target: C5A + IGKV3-15*01 one-armed SEEDbody; assay: BLI; oaSEEDbody on anti-human Fc (AHC) tips; association with 100 nM CEACAM5 at pH 7.4, dissociation at pH 7.4 in kinetic buffer (PBS, 0.1% Tween 20, 1% BSA); 30 C; 1:1 model
[8] = target: C5A + K40 one-armed SEEDbody; assay: as above
[9] = target: C5A + K39 one-armed SEEDbody; assay: as above
[10] = target: C5A + CV2 one-armed SEEDbody; assay: as above
[11] = target: C5A + CV3 one-armed SEEDbody; assay: as above
[12] = target: C5A + CV1 one-armed SEEDbody; assay: as above

CEACAM6, sequence (P40199 35-320): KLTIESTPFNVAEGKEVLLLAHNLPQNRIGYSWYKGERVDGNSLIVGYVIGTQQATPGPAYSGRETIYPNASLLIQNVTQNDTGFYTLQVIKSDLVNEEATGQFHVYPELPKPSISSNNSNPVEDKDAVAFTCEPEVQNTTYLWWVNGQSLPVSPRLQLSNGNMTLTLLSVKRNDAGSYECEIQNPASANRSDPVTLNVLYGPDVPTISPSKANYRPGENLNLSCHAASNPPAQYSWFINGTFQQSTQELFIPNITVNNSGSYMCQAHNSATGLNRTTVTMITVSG

koff [1] [s⁻¹] | koff [2] [s⁻¹] | Kd [3] [nM] | koff [3] [s⁻¹] | Kd [4] [nM] | koff [4] [s⁻¹] | koff [5] [s⁻¹] | koff [6] [s⁻¹] | Kd [7] [nM] | Kd [8] [nM] | Kd [9] [nM] | Kd [10] [nM] | Kd [11] [nM] | Kd [12] [nM] | Substance
0.000142 | 0.00019 | 7.73 | 0.000262 | 8.77 | 0.000158 | 0.000768 | 0.000361 | – | – | – | – | – | – | CEACAM6 (from UniProt P40199 35-320) (natural protein)
– | – | – | – | – | – | – | – | 0.9 | 3.12 | 4.16 | 4.14 | 2.55 | 4.11 | recombinant human His-tagged CEACAM5 (from UniProt P06731 35-685) (natural protein)
